# Data reported in patent US20040009166A1.
# How the values were obtained:
# [1] = molecular target: Recombinant human TNF-alpha (Pierce, cat # RTNFA50) (human) (UniProt P01375); assay: cell-based or functional assay
# [2] = molecular target: Recombinant human TNF-alpha (Pierce, cat # RTNFA50) (human) (UniProt P01375); assay: SPR (BiaCore X), rhTNF-alpha immobilized on CM5 chip, SCA as analyte, 1:1 fit
# Chain of UniProt P01375 (P01375 whole entry, form in doubt): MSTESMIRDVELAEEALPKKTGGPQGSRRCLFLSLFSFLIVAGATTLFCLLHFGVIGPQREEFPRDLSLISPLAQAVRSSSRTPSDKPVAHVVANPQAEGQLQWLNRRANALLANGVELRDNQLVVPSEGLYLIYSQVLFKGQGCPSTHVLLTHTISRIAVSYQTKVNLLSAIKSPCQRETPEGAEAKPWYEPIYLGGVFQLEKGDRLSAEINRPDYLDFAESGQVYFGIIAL
substance,measurement,setting,value
"2-7-SC-2 SCA (D2E7 SCA, VL-218-VH-his6, C-terminus Cys), native (scFv)","IC50, TNF-sensitive cell rescue assay, after 5 cycles of freeze-thaw",[1],225 nM
same,"IC50, TNF-sensitive cell rescue assay, after 10 cycles of freeze-thaw",[1],0.302 µg/mL
same,IC50 values (to rescue 50% WEHI-13VAR cells from killing by 1.0 ng/ml TNF),[1],3.05 nM
same,Ka,[2],8.36e+08 M⁻¹
same,Kd,[2],1.2 nM
same,koff,[2],0.000392 s⁻¹
same,kon,[2],328000 M⁻¹ s⁻¹
"2-7-SC-3 SCA (D2E7 SCA, VH-(GGGGS)3-VL-his6, C-terminus Cys), native (scFv)",Ka,[2],1.1e+08 M⁻¹
same,Kd,[2],9.05 nM
same,koff,[2],0.000416 s⁻¹
same,kon,[2],46400 M⁻¹ s⁻¹
"2-7-SC-4 SCA (D2E7 SCA, VL-218-VH, no his tag, C-terminus Cys), native (scFv)",IC50 Values (cell rescue of WEHI-13VAR cells from TNF-alpha),[1],7.18 nM
same,Ka,[2],5.49e+08 M⁻¹
same,Kd,[2],1.82 nM
same,koff,[2],0.000495 s⁻¹
same,kon,[2],272000 M⁻¹ s⁻¹
"2-7-SC-5 SCA (D2E7 SCA, VL-218-VH-his6, Cys at linker position 2), native (scFv)",IC50 Values (cell rescue of WEHI-13VAR cells from TNF-alpha),[1],4.18 nM
same,Ka,[2],1.55e+10 M⁻¹
same,Kd,[2],0.0644 nM
same,koff,[2],1.12e-05 s⁻¹
same,kon,[2],173000 M⁻¹ s⁻¹
"2-7-SC-7 SCA (D2E7 SCA, VH-(GGGGS)3-VL-his6, Cys at linker position 2), native (scFv)",Ka,[2],1.19e+10 M⁻¹
same,Kd,[2],0.0843 nM
same,koff,[2],2.96e-06 s⁻¹
same,kon,[2],35100 M⁻¹ s⁻¹
